Laboratory results reported in the NTF2 design screens of Basanta et al. (2020).

Experiment: protease stability score; higher = more stable; yeast display proteolysis, trypsin and chymotrypsin;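 also: log10 excess protease needed over predicted unfolded state with 0 meaning unfolded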

Sequence	protease stability score
DREVQEHIEQFWKVYRTGDEKRIVELLDPNVKFDYGDRTVEGRETVREEVKKHHDEQRVDFKSVDVKVTNGRIDVKVRAKYHHNGTPDEQKFTASASLNNGRVKHMSRQTSK	-0.181
DEKEAQKLLEKIAKTMKNGDTETAKKLGKDDVEVKYADDEHHGPDAIKKMLEKLKKLGLEVEYKEIHVEGDTVRVKVQVHHGGTTAHMEVEYQARGRKVDNMRVKYDERAKKLIKHG	0.471
DERRQQEVLKRFIDALQTGDPQKLKELADPNAQVNVGDKTFHGRDELVRQVEDEKRRIDEFHVVSIENHGDHVTARFRKESDGHQTEFVMKAYVHNGKVQSVKIDSS	0.201
DEHLHKAVNQLWHAIKTNDPDKVQELADPNVRIQVGDKEIHGREEFAHQVRRTREQMRVRIDIKQVDVQGNKVDIEYDYEYNVNGQPRSDRVTAVFVLHNGKVQRMHIHISEEQLRQQEK	0.886
DRDEVHHLHELYKAIEDGDDKKAQDLMDENAKARIGDKHFRGMQHFVETLKKEKDHMRVKIDNMRFTERPNRVVVNIEVKRSNNGEPESEVYRAFADAHNGKFVNLVIEHNQ	-0.056
DDDDMKLAEEFAQAISTGDHNRVEENADKDARFDIGDKVVNGNHQRATEVKKEQDDQKVSVDINSMDATGNKVVAEINVDINNNGHPETQEHILHFTQDNGKIRHMEVKDDQ	-0.685
DEKEDRKLLQQLAEMFQNGDVERVRKLGKDDVEAEYGDERQHGPDAMKKFVERVKKLGAKVEYKEVHVEGDTVTAKVQADYAGQTVEMHVTYQAQGRRMDRVKVKYDETAQKVIKHG	0.566
DEKEIQKLLEQLMKMFVNGNDEQIKKLGKDDVEATYMDEKVTGPDKVVELVKKYMDLGVKVEYKEEHVEGDKATAKVEADAGGQTVRFHVHYKATGRKMDRVEVQYDETAKKVIKHG	-0.131
DESLVEILKKLAKAFNENDPDHLVKLFDEDARLDYGDTSVHGREQIKRLMEDWKRRMTVKIRVNHIDVKNGRAQMKADLTIRHNGKPDTNKVEVELHAHNGRNKEVVFERTK	0.279
DTTTEIQRLVHDFVRKIKTGDPKEFERLVDEDARVRVGDKTVSGREEAVSHMVETAQRADTMDVNITSVSIHNGHAKVEFHLKYDHNGKDVEQTIIFVMVKRNGHFRLKEMVQK	1.26
DEEQHNFANKVWEAITKGDPDEIRRLFDENVRVKVGNKTITGREELSETMEKIKKHLRMRVQVDEIEFDGDQIRVHFTANLNVNGRPVEYRAELIMHVHDGRVKHMHLRVPEQVERELEK	1.05
DENTQKQIAKKVVDVIRNGDPKQLHDLFDPNARLNIGDRTYTGSKEFQKHAETLRRNVDHIQVKSIDVQGEHIHINMVLNVNGKQYNANFRVDVHNGKAKQMSVEYRDKEEYKTLKR	0.362
DEEELEKMAEKVIKMLRSGDPRQAVRMMDENAHVEYGDKTYHGREDAERAVKQWTDHFDKVRVVHVDVHNGTVNVDMEINHNGRVERYVVRVEVHNGRVKHLVVKSS	1.2
DDTTRAKEWAEELNRIYRNGDPKELEKQMDKDVRLIIGEKHIHGRSQAMNWMRELMKKADHIELRIHDVKVQGENVTVVVVYRINVNGRDVQRRVIIVAEVHNGHLKIKEMHES	1.88
DEDEERKAVERFLDALKTGDPDKFKKLVDPNVNIQVGDKEINGREQYAHEVHRRKKRADHLEVEHVNVKNGKVQIFVVINVDGRSHHYVLDAHIHNGRIVEMKVEHQ	0.08
DREIQHQVTELLEARRRGDEKRLQQNFDPNARMRIGDKEWHGMDTAAEEIAHEQREMRFDVKSIEVRVSGNKVSVDNRYVLEHDGRPHEFVQHDDVEMSNGKFKTAEVKHDG	-0.408
DEEELEKINQLIKTNDFQQLRQDADPNVQVEYGDKSYHGRENLTKNMREFEKMVDHVQLKDYRVKGEKLEADMVATVNGREIRFTLSMNVHNGKIKQISLKYRNEDQKRRMEEALN	0.922
EEEAFDRAQQFVRAMETGDTTKLEQLADKDVRFDVGDKEVQGREEYSKTVHELKKEMRFRYEFKHYTVTGDEVDARVEFEYEHNGQPRRTQAKVTFIFQGDKLESINMKESQ	0.146
DPTKALRLADTALRAFANGNSDQVKQHLKPDVRARVVDEETQGVDQIVKQLQHFVKVGVQRQVDEVRHEGNQVEAHTQYQVGDNQATMTVVYRAQNGKVDEIEVRYDERAKKIFEQG	-0.115
DDEDAKRWEKFLKLQQEGNDSEMRKLVDENASFDVGNKHYSGMTTMAHELVRHAHDIRLEYKDVKIDVSGEQIYVTMEVTVNINGQPVRYTNVLEVTMHNGKVKTATNRIPEDVEREIRQ	0.034
